This is an account of results in paper PMC6093860.

Read-outs that look alike come from different tables or passages of the source.

One may read the stoichiometry N as a count of units in the complex or per binding partner.

For test [1], the target named is human complement component 9 (C9), wild type (human). Description: cryo-EM structure; polyC9 formed from purified human C9 at 1.1-1.5 mg mL^-1 in 10 mM HEPES pH 7.5, 50 mM NaCl with amphipol A8-35 (0.015-0.02 mg mL^-1), 37 °C overnight; ring of C9 subunits.
The target is the same in test [2]. The description is as above. The source holds these as a separate data set.

For “human complement component 9 (C9), wild type (natural protein)”, the stoichiometry N in test [1] was 22; in test [2], 21.
